Read-outs that look alike come from different tables or passages of the source.

Assay [1] concerns the target T1, native human NRP-1 on the cell surface (human, UniProt O14786 22-923).
T1 construct: whole, on cells; endogenous protein; isoform and glycosaminoglycan state on the cells not defined; also called native NRP-1 on MDA-MB-231 cells; native form of NRP-1 protein on the CTCs cell surface
Briefly: flow cytometry, MDA-MB-231 cells, 40 ug/ml, +chondroitinase. Background: A flow cytometer gives signals particle by particle.

The target of assay [2] is recombinant murine NRP-1 (5994-N1-050, Bio-Techne) (murine) (UniProt P97333). Briefly: ELISA, antibody 10 µg/ml, 1 µg immobilised murine NRP-1.
recombinant murine NRP-1 (5994-N1-050, Bio-Techne) (murine), sequence (P97333 22-856): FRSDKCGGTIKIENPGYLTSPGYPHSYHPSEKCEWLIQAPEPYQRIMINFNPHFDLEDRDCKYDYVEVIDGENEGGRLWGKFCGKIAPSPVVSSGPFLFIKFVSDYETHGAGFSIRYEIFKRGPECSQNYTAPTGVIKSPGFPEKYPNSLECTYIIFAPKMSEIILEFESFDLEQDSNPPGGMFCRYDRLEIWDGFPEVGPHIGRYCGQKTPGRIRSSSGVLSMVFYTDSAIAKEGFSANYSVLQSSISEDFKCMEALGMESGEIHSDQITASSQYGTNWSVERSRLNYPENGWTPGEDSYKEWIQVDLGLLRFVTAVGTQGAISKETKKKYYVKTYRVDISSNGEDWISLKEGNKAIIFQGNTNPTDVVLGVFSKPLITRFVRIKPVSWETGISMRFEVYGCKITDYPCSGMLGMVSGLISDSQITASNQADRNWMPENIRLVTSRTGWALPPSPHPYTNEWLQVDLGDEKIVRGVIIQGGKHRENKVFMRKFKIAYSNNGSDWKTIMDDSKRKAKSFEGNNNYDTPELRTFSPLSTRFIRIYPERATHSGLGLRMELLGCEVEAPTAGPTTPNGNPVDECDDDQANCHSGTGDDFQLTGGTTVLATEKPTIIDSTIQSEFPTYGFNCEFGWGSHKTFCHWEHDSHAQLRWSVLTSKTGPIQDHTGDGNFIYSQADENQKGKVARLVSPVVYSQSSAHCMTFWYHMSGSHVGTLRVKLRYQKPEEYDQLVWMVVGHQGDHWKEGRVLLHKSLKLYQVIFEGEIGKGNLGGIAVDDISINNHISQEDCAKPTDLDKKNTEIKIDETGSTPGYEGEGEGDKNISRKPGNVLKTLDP
In assay [3] the target is T2, NRP-1 peptide (Npep).
T2 sequence (peptide): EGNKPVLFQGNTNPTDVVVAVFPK
Kind of assay: ELISA, antibody 10 µg/ml, 2 µg immobilised Npep. (In general: ELISA stands for enzyme-linked immunosorbent assay.)

Assay [4] has as its target recombinant human NRP-1 (3870-N1-025, Bio-Techne) (human) (UniProt O14786). Kind of assay: ELISA, antibody 10 µg/ml, 1 µg immobilised human NRP-1.
Assay [5] addresses T1, native human NRP-1 on the cell surface. Briefly: flow cytometry, MDA-MB-231 cells, 10 ug/ml, -heparinase.
Assay [6] shares this target. Kind of assay: flow cytometry, MDA-MB-231 cells, 40 ug/ml, -chondroitinase.
The target is the same in assay [7]. Kind of assay: flow cytometry, MDA-MB-231 cells, 10 ug/ml, +heparinase.
Assay [8] shares this target. Kind of assay: flow cytometry, CTC cells mix, 10 ug/ml.
Assay [9] shares this target. Kind of assay: flow cytometry, CTC cells mix, 25 ug/ml.
Assay [10] shares this target. Kind of assay: flow cytometry, CTC cells mix, 50 ug/ml.
Assay [11] concerns the target native human NRP-1 on the cell surface (human) (UniProt O14786). Briefly: flow cytometry, MDA-MB-231 cells, 10 ug/ml, with against without heparinase.
The target is the same in assay [12]. Kind of assay: flow cytometry, MDA-MB-231 cells, 40 ug/ml, +chondroitinase.
Assay [13] has the same target. Briefly: flow cytometry, MDA-MB-231 cells, 10 ug/ml, -heparinase.
The target is the same in assay [14]. Kind of assay: flow cytometry, MDA-MB-231 cells, 40 ug/ml, -chondroitinase.
The target is the same in assay [15]. Briefly: flow cytometry, MDA-MB-231 cells, 10 ug/ml, +heparinase.
Assay [16] has the same target. Briefly: flow cytometry, MDA-MB-231 cells, 40 ug/ml, with against without chondroitinase.
For assay [17], the target named is T3, recombinant human NRP-1 (3870-N1-025, Bio-Techne) (human, UniProt O14786 22-856).
T3 construct: extracellular domain; bought protein; also called human recombinant NRP-1
Briefly: ELISA, antibody 10 µg/ml, 1 µg immobilised human NRP-1.

In assay [18] the target is T1, native human NRP-1 on the cell surface. Briefly: flow cytometry, MDA-MB-231 cells, 10 ug/ml, -heparinase. The source holds these as a separate data set.
Assay [19] has the same target. Briefly: flow cytometry, MDA-MB-231 cells, 40 ug/ml, +chondroitinase. Here is the method:
(§1) Chondroitinase (C2905, Sigma) was reconstituted in a 0.01% BSA aqueous solution. The MDA-MB-231 cells were treated with chondroitinase (1 U/ml) for 2 hours at 37° C. The cells were detached using cell dissociation solution non-enzymatic (C5914, Sigma). 300,000 cells per condition were washed with 2% FBS in PBS and then incubated with different antibodies of interest or their respective isotype controls at 40 μg/ml for 30 min at 4° C. After wash, an Alexa 488-conjugated anti-human immunoglobulin antibody (20022-1, Biotium) was added at 10 μg/ml for 30 min at 4° C. After a final wash, fluorescence, size and granularity of cells were measured by the LSR Fortessa cytometer (BD Biosciences).
This is another data set of the same source.

For assay [20] the target is unchanged. Briefly: flow cytometry, MDA-MB-231 cells, 10 ug/ml, +heparinase. This is another data set of the same source.
Assay [21] concerns the target T4, recombinant murine NRP-1 (5994-N1-050, Bio-Techne) (murine, UniProt P97333 22-856).
T4 construct: extracellular domain; bought protein; also called mouse recombinant NRP-1
Kind of assay: ELISA, antibody 10 µg/ml, 1 µg immobilised murine NRP-1.

Assay [22] has as its target T1, native human NRP-1 on the cell surface. Briefly: flow cytometry, MDA-MB-231 cells, 40 ug/ml, with against without chondroitinase. Here is the method:
as §1

Assay [23] has as its target T5, NRP-1 peptide (Npep).
T5 construct: also called synthetic peptide Npep
T5 peptide: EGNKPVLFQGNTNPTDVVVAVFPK
Kind of assay: ELISA, antibody 10 µg/ml, 2 µg immobilised Npep.

Assay [24] concerns the target T1, native human NRP-1 on the cell surface. Kind of assay: flow cytometry, MDA-MB-231 cells, 40 ug/ml, -chondroitinase. Here is the method:
as §1
The source holds these as a separate data set.

Assay [25] has the same target. Briefly: flow cytometry, MDA-MB-231 cells, 10 ug/ml, with against without heparinase.

T4 sequence (P97333 22-856): as the sequence (P97333 22-856) above

Regarding hIgG1 isotype control (antibody), the percentage of binding in assay [1] came out at 0.063%; in [5], 0.17%; in [6] it was 0.1%; in assay [7], 0.14%. Also, the Absorbance was 0.084 in assay [2], 0.05 with NRP-1 peptide (Npep) [3] and 0.073 in [4].
In the case of mIgG2b isotype control (antibody), the percent of bound cells is 3.65% in assay [8], 6.66% in [9] and 14.4% in assay [10]. The percentage of binding in assay [1] was determined as 0.66%; in [5], 0.086%; in assay [6], 0.45%; in [7] it was 0.28%.
hIgG4 isotype control (antibody): the percent of bound cells in assay [8] is 2.04%; in assay [9] it was 3.3%; in assay [10], 4.04%. For the same molecule, the results for the Absorbance (in assay [2]; with NRP-1 peptide (Npep) [3]; in assay [4]) were 0.064, 0.055 and 0.073, respectively. Besides, the percentage of binding in assay [5] came out at 0.2%; in assay [6], 0.47%; in [7], 0.24%.

B1: a-NRP1_SEM (antibody, from another filing, V domains shown)
VH: EVQLVESGGGLVQPGGSLRLSCAASGFSFSSEPISWVRQAPGKGLEWVSSITGKNGYTYYADSVKGRFTISADTSKNTAYLQMNSLRAEDTAVYYCARWGKKVYGMDVWGQGTLVTVSS
VL: DIQMTQSPSSLSASVGDRVTITCRASQSISSYLAWYQQKPGKAPKLLIYGASSRASGVPSRFSGSGSGTDFTLTISSLQPEDFATYYCQQYMSVPITFGQGTKVEIKR
In the case of B1, the delta (% of control) in [11] is 1.1%; in assay [16], -0.1%. Further, the percentage of binding in assay [12] was 99.9%; in [13] it was 96.6%; in assay [14], 100%; in [15], 97.7%. Further, the figures for the Absorbance (in assay [2]; with NRP-1 peptide (Npep) [3]; in assay [4]) were 0.431, 0.063 and 0.407, respectively.

B2: variant 8 a-NRP1_LEP n° 1 (antibody, V domains shown)
VH: EVQLVESGGGLVQPGGSLRLSCAASGFTFSSYSMHWVRQAPGKGLEWVSYISSGSSTIHYADSVKGRFTISRDNAKNSLYLQMNSLRAEDTAVYYCARRHYGSSRYWYFDVWGQGTTVTVSS
VL: EIVLTQSPATLSLSPGERATLSCRASQSVKSYLAWYQQKPGQAPRLLIYYASSRATGIPARFSGSGSGTDFTLTISSLEPEDFAVYYCQQYSESPYTFGQGTKLEIK
notes: humanized variant of 21B10; isotype control hIgG4; also called Var8; variant no 8
With B2, the Absorbance in assay [17] stood at 0.59; in [21], 0.412; with NRP-1 peptide (Npep) [23], 0.475. Also, the percentage of binding in assay [18] came to 13.3%; in assay [19], 61.5%; in assay [20], 9.88%; in assay [24], 75.6%. Also, the entries for the “delta (% of control)” value in assay [22] and in assay [25] were -14.1% and -3.42%, respectively.

B3: variant 6 a-NRP1_LEP n° 1 (antibody, V domains shown)
VH: B2 VH
VL: DIQMTQSPSTLSASVGDRVTITCRASQSIKSYLAWYQQKPGKAPKLLIYYASSLASGVPSRFSGSGSGTEFTLTISSLQPDDFATYYCQQYGESSYTFGQGTKLEIK
notes: humanized variant of 21B10; isotype control hIgG4; also called Var6; variant no 6
Take B3: the Absorbance in assay [17] worked out at 0.799; in [21] it was 0.72; with NRP-1 peptide (Npep) [23] it was 0.684. The percentage of binding worked out at 13.1% in assay [18], 69.1% in assay [19], 11.5% in assay [20] and 85.3% in assay [24]. Further, the entries for the “delta (% of control)” value in assay [22] and in assay [25] were -16.2% and -1.6%, respectively.

For the origin of these results see patent publication US20260226176A1 (THERANOVIR, published 2026).
